In IntAct's records for PubMed 19208808:

B1: ATP-dependent RNA helicase DDX19B (Homo sapiens), Q9UMR2-1 (parent)
chain: MATDSWALAVDEQEAAAESLSNLHLKEEKIKPDTNGAVVKTNANAEKTDEEEKEDRAAQSLLNKLIRSNLVDNTNQVEVLQRDPNSPLYSVKSFEELRLKPQLLQGVYAMGFNRPSKIQENALPLMLAEPPQNLIAQSQSGTGKTAAFVLAMLSQVEPANKYPQCLCLSPTYELALQTGKVIEQMGKFYPELKLAYAVRGNKLERGQKISEQIVIGTPGTVLDWCSKLKFIDPKKIKVFVLDEADVMIATQGHQDQSIRIQRMLPRNCQMLLFSATFEDSVWKFAQKVVPDPNVIKLKREEETLDTIKQYYVLCSSRDEKFQALCNLYGAITIAQAMIFCHTRKTASWLAAELSKEGHQVALLSGEMMVEQRAAVIERFREGKEKVLVTTNVCARGIDVEQVSVVINFDLPVDKDGNPDNETYLHRIGRTGRFGKRGLAVNMVDSKHSMNILNRIQEHFNKKIERLDTDDLDEIEKIAN

Variants of: B1
Settings: with NUP214, P35658-1
Sequence of NUP214, P35658-1 (P35658 whole entry): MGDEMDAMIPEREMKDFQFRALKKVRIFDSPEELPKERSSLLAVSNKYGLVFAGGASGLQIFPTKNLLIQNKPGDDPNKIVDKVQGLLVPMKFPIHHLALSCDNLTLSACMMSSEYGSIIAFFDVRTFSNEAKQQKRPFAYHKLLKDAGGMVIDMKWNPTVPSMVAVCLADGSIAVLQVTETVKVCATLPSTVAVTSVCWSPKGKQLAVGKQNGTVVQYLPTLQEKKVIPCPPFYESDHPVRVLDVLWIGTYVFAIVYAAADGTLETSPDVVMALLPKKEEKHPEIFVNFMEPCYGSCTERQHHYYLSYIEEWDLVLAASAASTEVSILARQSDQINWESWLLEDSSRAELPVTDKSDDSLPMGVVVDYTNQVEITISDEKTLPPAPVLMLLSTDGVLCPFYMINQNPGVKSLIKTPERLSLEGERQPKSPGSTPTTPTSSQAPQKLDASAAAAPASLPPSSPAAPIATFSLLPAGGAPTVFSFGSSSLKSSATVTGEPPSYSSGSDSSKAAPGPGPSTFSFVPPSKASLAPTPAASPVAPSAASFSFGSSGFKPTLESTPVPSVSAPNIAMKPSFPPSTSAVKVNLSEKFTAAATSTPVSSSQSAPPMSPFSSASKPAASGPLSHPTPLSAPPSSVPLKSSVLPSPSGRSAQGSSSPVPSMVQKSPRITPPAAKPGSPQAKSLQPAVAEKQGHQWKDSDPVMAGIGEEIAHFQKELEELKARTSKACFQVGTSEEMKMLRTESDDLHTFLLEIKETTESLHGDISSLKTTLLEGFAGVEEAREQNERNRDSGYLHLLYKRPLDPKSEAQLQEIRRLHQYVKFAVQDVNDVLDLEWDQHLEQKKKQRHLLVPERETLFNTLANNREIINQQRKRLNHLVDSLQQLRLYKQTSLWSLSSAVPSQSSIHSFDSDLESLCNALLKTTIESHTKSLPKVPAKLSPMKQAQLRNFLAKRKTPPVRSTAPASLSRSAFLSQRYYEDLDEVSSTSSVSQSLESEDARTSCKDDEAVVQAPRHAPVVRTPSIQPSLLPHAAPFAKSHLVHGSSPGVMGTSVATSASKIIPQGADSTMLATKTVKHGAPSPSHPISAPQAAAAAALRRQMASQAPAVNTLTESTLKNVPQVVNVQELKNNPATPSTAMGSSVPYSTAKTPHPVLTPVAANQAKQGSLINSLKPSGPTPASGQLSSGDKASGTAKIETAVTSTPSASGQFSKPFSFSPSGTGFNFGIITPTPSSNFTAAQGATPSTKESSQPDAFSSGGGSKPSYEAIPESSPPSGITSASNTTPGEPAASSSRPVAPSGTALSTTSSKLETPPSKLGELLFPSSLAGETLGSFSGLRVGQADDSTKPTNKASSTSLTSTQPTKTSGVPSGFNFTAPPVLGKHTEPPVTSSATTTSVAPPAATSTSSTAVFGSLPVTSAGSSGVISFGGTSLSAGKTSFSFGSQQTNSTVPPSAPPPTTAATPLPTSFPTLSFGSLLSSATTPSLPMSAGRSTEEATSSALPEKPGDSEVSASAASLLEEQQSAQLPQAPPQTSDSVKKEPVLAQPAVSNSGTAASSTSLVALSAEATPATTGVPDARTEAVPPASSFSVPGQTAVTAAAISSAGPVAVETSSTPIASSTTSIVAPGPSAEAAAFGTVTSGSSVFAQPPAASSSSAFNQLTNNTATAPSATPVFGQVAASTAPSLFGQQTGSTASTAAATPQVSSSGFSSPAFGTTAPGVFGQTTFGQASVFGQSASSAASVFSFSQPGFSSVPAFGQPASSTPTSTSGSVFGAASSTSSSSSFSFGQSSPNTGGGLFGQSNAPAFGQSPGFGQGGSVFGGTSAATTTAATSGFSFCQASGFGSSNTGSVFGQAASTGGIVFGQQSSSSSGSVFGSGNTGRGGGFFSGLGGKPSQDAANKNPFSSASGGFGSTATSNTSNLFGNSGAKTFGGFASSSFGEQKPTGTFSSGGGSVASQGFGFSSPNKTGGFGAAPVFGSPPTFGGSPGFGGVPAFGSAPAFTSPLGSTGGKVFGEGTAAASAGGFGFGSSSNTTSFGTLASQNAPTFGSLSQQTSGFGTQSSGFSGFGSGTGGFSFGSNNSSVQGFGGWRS

Row | effect of a mutation on the interaction | Variant
1 | decreasing interaction | MATDSWALAVDEQEAAAESLSNLHLKEEKIKPDTNGAVVKTNANAEKTDEEEKEDRAAQSLLNKLIRSNLVDNTNQVEVLQRDPNSPLYSVKSFEELRLKPQLLQGVYAMGFNRPSKIQENALPLMLAEPPQNLIAQSQSGTGKTAAFVLAMLSQVEPANKYPQCLCLSPTYELALQTGKVIEQMGKFYPELKLAYAVRGNKLERGQKISEQIVIGTPGTVLDWCSKLKFIDPKKIKVFVLDEADVMIATQGHQDQSIQIQRMLPRNCQMLLFSATFEDSVWKFAQKVVPDPNVIKLKREEETLDTIKQYYVLCSSRDEKFQALCNLYGAITIAQAMIFCHTRKTASWLAAELSKEGHQVALLSGEMMVEQRAAVIERFREGKEKVLVTTNVCARGIDVEQVSVVINFDLPVDKDGNPDNETYLHRIGRTGRFGKRGLAVNMVDSKHSMNILNRIQEHFNKKIERLDTDDLDEIEKIAN [R259Q]
2 | disrupting interaction strength | MATDSWALAVDEQEAAAESLSNLHLKEEKIKPDTNGAVVKTNANAEKTDEEEKEDRAAQSLLNKLIRSNLVDNTNQVEVLQRDPNSPLYSVKSFEELRLKPQLLQGVYAMGFNRPSKIQENALPLMLAEPPQNLIAQSQSGTGKTAAFVLAMLSQVEPANKYPQCLCLSPTYELALQTGKVIEQMGKFYPELKLAYAVRGNKLERGQKISEQIVIGTPGTVLDWCSKLKFIDPKKIKVFVLDEADVMIATQGHQDQSIEIQRMLPRNCQMLLFSATFEDSVWKFAQKVVPDPNVIKLKREEETLDTIKQYYVLCSSRDEKFQALCNLYGAITIAQAMIFCHTRKTASWLAAELSKEGHQVALLSGEMMVEQRAAVIERFREGKEKVLVTTNVCARGIDVEQVSVVINFDLPVDKDGNPDNETYLHRIGRTGRFGKRGLAVNMVDSKHSMNILNRIQEHFNKKIERLDTDDLDEIEKIAN [R259E]
3 | disrupting interaction strength | MATDSWALAVDEQEAAAESLSNLHLKEEKIKPDTNGAVVKTNANAEKTDEEEKEDRAAQSLLNKLIRSNLVDNTNQVEVLQRDPNSPLYSVKSFEELRLKPQLLQGVYAMGFNRPSKIQENALPLMLAEPPQNLIAQSQSGTGKTAAFVLAMLSQVEPANKYPQCLCLSPTYELALQTGKVIEQMGKFYPELKLAYAVRGNKLERGQKISEQIVIGTPGTVLDWCSKLKFIDPKKIKVFVLDEADVMIATQGHQDQSIAIQRMLPRNCQMLLFSATFEDSVWKFAQKVVPDPNVIKLKREEETLDTIKQYYVLCSSRDEKFQALCNLYGAITIAQAMIFCHTRKTASWLAAELSKEGHQVALLSGEMMVEQRAAVIERFREGKEKVLVTTNVCARGIDVEQVSVVINFDLPVDKDGNPDNETYLHRIGRTGRFGKRGLAVNMVDSKHSMNILNRIQEHFNKKIERLDTDDLDEIEKIAN [R259A]
